Reference: publication PMC5799202, “Eis, a novel family of arylalkylamine N-acetyltransferase (EC 2.3.1.87)” (Scientific Reports, 2018)
Read-outs that look alike come from different tables or passages of the source.

Key:
Eis_Mtb = biological target: T1, Eis_Mtb (Mycobacterium tuberculosis, UniProt P9WFK7); assay: dead-end inhibition kinetics, DTNB acetyltransferase assay, purified enzyme; assay type: biochemical
T1 construct: gene eis

[1] = system: CCC(=O)SCCNC(=O)CCNC(=O)[C@H](O)C(C)(C)COP(=O)(O)OP(=O)(O)OC[C@H]1O[C@@H](n2cnc3c(N)ncnc32)[C@H](O)[C@@H]1OP(=O)(O)O; assay: purified protein
NCCc1c[nH]cn1 = assay: purified protein
[2] = system: CC(=O)SCCNC(=O)CCNC(=O)[C@H](O)C(C)(C)COP(=O)(O)OP(=O)(O)OC[C@H]1O[C@@H](n2cnc3c(N)ncnc32)[C@H](O)[C@@H]1OP(=O)(O)O; assay: purified protein; details: acetyl-CoA binding first followed by histamine (ordered sequential mechanism)
[3] = acetyl-CoA binds after acetyl-CoA to form a precatalytic ternary complex

T1 sequence (P9WFK7 2-402): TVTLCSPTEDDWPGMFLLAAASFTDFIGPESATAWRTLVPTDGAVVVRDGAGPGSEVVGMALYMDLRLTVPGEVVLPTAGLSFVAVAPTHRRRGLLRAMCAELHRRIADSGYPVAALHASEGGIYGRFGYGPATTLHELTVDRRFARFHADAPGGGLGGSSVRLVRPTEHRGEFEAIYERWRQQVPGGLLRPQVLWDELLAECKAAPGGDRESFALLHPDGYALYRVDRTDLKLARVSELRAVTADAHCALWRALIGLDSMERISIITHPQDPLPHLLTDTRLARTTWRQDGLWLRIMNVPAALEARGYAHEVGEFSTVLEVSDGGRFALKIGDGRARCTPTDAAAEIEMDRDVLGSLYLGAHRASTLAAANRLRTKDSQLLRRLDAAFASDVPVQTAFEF

`CCCCCCCC/C=C\CCCCCCCC(=O)SCCNC(=O)CCNC(=O)[C@H](O)C(C)(C)COP(=O)(O)OP(=O)(O)OC[C@H]1O[C@@H](n2cnc3c(N)ncnc32)[C@H](O)[C@@H]1OP(=O)(O)O` [oleoyl-CoA] gave a Ki (Eis_Mtb) of 0.268 ± 0.0684 µM.

With `OCCc1ccc(O)cc1` [tyrosol] the Ki (Eis_Mtb; read-out: Ki) was 175 ± 48.7 µM.

For “Eis_Msm (Mycolicibacterium smegmatis MC2 155)”, the Km [1] was 98 ± 23 µM.

In the case of “Eis_Mtb (Mycobacterium tuberculosis H37Rv)”, the Km (NCCc1c[nH]cn1) is reported as “(28 ± 5.2) × 10^2 μM”, the kcat (NCCc1c[nH]cn1; [3]) is reported as 0.5 ± 0.04 s⁻¹ and the kcat/Km (NCCc1c[nH]cn1; [3]) is reported as 170 ± 83 M⁻¹ s⁻¹. For the same compound, the Km [1] was 47 ± 10 µM, the kcat [1] was 0.6 ± 0.1 s⁻¹ and the kcat/Km [1] was 14000 ± 4000 M⁻¹ s⁻¹. For the same compound, the Km [2] was “(1.2 ± 0.27) × 10^2 μM”, the kcat [2] was 5.6 ± 0.2 s⁻¹ and the kcat/Km [2] was 52000 ± 13000 M⁻¹ s⁻¹.
